# [ ]: non-standard residue; d: D form. The star is where a group is joined. FITC = O=C1OC2(c3ccc(O)cc3Oc3cc(O)ccc32)c2ccc(NC(=S)*)cc21; Abu = CC[C@H](N)C(=O)O; βAla = NCCC(=O)O
# T1: HDAC6 BUZ domain (without GST tag) (UniProt Q9UBN7 1059-1215)
# T1 sequence (looked up): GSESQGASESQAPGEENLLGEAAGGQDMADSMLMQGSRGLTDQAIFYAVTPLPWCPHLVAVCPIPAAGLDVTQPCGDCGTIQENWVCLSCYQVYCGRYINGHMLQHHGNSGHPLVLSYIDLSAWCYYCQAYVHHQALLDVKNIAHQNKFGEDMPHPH
# Key:
# Test in all cases: fluorescence polarisation
# [1] = molecular target: (His)6-tagged Ubp-M BUZ domain (UniProt Q9Y5T5 22-143)
# Target sequence in this assay (Q9Y5T5 22-143): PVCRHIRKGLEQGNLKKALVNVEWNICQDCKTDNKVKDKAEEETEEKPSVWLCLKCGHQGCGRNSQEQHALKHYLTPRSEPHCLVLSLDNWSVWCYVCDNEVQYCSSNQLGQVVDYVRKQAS
# [2] = molecular target: (His)6-tagged Ubp-M BUZ domain (UniProt Q9Y5T5 22-143); remark: listed apart in the source
# Target sequence in this assay (Q9Y5T5 whole entry, looked up, the tested form may be a part): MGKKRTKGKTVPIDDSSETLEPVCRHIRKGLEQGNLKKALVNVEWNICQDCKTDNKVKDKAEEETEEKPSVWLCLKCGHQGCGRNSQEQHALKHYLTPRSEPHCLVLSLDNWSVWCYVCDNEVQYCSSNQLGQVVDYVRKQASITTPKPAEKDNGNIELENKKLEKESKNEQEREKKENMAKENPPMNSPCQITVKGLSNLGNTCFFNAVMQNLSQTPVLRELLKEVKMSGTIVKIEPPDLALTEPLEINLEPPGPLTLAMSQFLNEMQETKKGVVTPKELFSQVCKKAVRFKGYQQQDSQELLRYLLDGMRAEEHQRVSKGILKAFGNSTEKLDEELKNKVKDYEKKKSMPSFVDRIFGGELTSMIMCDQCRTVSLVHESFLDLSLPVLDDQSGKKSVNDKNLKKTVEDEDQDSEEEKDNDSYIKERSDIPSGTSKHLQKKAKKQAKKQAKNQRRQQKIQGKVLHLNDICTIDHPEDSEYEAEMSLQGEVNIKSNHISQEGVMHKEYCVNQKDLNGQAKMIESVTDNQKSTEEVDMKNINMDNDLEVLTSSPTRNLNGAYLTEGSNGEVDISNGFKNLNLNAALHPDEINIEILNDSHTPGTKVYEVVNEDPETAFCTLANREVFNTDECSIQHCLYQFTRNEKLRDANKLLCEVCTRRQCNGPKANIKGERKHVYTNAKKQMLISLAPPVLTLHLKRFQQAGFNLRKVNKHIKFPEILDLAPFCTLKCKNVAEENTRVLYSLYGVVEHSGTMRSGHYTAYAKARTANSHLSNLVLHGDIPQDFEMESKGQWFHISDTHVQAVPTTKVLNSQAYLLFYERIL
# GST-HDAC6 BUZ = GST-HDAC6 BUZ (UniProt Q9UBN7 1059-1215)
# [3] = molecular target: T1, HDAC6 BUZ domain (without GST tag)
binder,measurement,setting,value
{FITC-βAla-βAla}-IAKGG-OH (SMILES CC[C@H](C)[C@H](NC(=O)CCNC(=O)CCNC(=S)Nc1ccc2c(c1)C(=O)OC21c2ccc(O)cc2Oc2cc(O)ccc21)C(=O)N[C@@H](C)C(=O)N[C@@H](CCCCN)C(=O)NCC(=O)NCC(=O)O) [FITC-β-Ala-β-Ala-IAKGG],Kd,[1],12 ± 3 µM
{FITC-βAla-βAla}-RGMGG-OH (SMILES CSCC[C@H](NC(=O)CNC(=O)[C@H](CCCNC(=N)N)NC(=O)CCNC(=O)CCNC(=S)Nc1ccc2c(c1)C(=O)OC21c2ccc(O)cc2Oc2cc(O)ccc21)C(=O)NCC(=O)NCC(=O)O) [FITC-β-Ala-β-Ala-RGMGG],Kd,[1],17 ± 3 µM
{FITC-βAla-βAla}-LQDGF-OH (SMILES CC(C)C[C@H](NC(=O)CCNC(=O)CCNC(=S)Nc1ccc2c(c1)C(=O)OC21c2ccc(O)cc2Oc2cc(O)ccc21)C(=O)N[C@@H](CCC(N)=O)C(=O)N[C@@H](CC(=O)O)C(=O)NCC(=O)N[C@@H](Cc1ccccc1)C(=O)O) [FITC-β-Ala-β-Ala-LQDGF],Kd,[1],> 150 µM
{FITC-βAla-βAla}-Y[Abu]IGG-OH (SMILES CC[C@H](NC(=O)[C@H](Cc1ccc(O)cc1)NC(=O)CCNC(=O)CCNC(=S)Nc1ccc2c(c1)C(=O)OC21c2ccc(O)cc2Oc2cc(O)ccc21)C(=O)N[C@H](C(=O)NCC(=O)NCC(=O)O)[C@@H](C)CC) [FITC-β-Ala-β-Ala-YUIGG],Kd,[2],12 ± 2 µM
same,Kd,GST-HDAC6 BUZ,1300 ± 100 nM
{FITC-βAla-βAla}-YGFGG-OH (SMILES O=C(O)CNC(=O)CNC(=O)[C@H](Cc1ccccc1)NC(=O)CNC(=O)[C@H](Cc1ccc(O)cc1)NC(=O)CCNC(=O)CCNC(=S)Nc1ccc2c(c1)C(=O)OC21c2ccc(O)cc2Oc2cc(O)ccc21) [FITC-β-Ala-β-Ala-YGFGG],Kd,[1],13 ± 3 µM
{FITC-βAla-βAla}-NALGG-OH (SMILES CC(C)C[C@H](NC(=O)[C@H](C)NC(=O)[C@H](CC(N)=O)NC(=O)CCNC(=O)CCNC(=S)Nc1ccc2c(c1)C(=O)OC21c2ccc(O)cc2Oc2cc(O)ccc21)C(=O)NCC(=O)NCC(=O)O) [FITC-β-Ala-β-Ala-NALGG],Kd,[3],230 ± 20 nM
same,Kd,[1],33 ± 7 µM

# From article PMC3005221 (Biochemistry, 2010)
